From article PMC10348674 (Science Advances, 2023)
Residue numbers refer to the chain shown, from its start. Names and notes keep the numbering of the source.

B1: KCTD7 (Sf9, for the cryo-EM complex) (natural protein)
chain: MVVVTGREPDSRHSDGAMSSSEAEDDFLEPATPTATQAGHGLPLLPQEFPEVVPLNIGGAHFTTRLSTLRRYEDTMLAAMFSGRHYIPTDSEGRYFIDRDGTHFGDVLNFLRSGDLPPREHVRAVHKEAQYYAIGPLLEQLENMQPLKGEKVRQAFLGLMPYYKDHLERIVEIARLRAVQRKARFAKLKVCVFKEEMPITPYECPLLNSLRFERSESDGQLFEHHCEVDVSFGPWEAVADVYDLLHCLVTDLSAQGLTVDHQCIGVCDKHLVNHYYCKRPIYEFKITWW
B2: FLAG-tagged KCTD5 full-length (FL) (natural protein)
chain: MAENHCELLPPAPSGLGAGLGGGLCRRCSAGMGALAQRPGGVSKWVRLNVGGTYFLTTRQTLCRDPKSFLYRLCQADPDLDSDKDETGAYLIDRDPTYFGPVLNYLRHGKLVINKDLAEEGVLEEAEFYNITSLIKLVKDKIRERDSRISQMPVKHVYRVLQCQEEELTQMVSTMSDGWKFEQLVSIGSSYNYGNEDQAEFLCVVSKELHNTPYGTTSEPSEKAKILQERGSRM
B3: FLAG-tagged KCTD5 E167A (natural protein)
chain: B2 chain with E167A
B4: FLAG-tagged KCTD5 R159A (natural protein)
chain: B2 chain with R159A
B5: FLAG-tagged KCTD5 D93A (natural protein)
chain: B2 chain with D93A
B6: FLAG-tagged KCTD5 W179A (natural protein)
chain: B2 chain with W179A
B7: FLAG-tagged KCTD5 R72A (natural protein)
chain: B2 chain with R72A
B8: FLAG-tagged KCTD7 WT (E. coli, for pull-down) (natural protein)
chain: B1 chain
B9: FLAG-tagged KCTD7 S67A (natural protein)
chain: B1 chain with S67A
B10: FLAG-tagged KCTD7 R65A (natural protein)
chain: B1 chain with R65A

Molecular target: T1, Cul3NΔ22 (23-388, I342R, and L346D) (UniProt Q13618 23-388, I342R | L346D)
Test: cryo-EM structure

T1 sequence (Q13618 23-388 I342R/L346D): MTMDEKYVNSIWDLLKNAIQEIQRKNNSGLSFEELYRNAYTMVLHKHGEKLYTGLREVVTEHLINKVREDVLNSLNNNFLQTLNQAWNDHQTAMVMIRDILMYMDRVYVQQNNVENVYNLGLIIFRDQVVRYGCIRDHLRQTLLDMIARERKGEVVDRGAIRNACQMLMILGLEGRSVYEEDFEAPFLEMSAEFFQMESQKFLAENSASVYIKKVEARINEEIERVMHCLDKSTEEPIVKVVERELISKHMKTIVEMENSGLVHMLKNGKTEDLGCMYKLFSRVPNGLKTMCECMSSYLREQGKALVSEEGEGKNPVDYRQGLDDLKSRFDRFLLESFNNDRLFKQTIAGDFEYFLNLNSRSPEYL

Row | binding result | Binder
1 | binds | B1

Molecular target: the molecule itself
Test: cryo-EM structure

Row | Binder | stoichiometry N
2 | B1 | 5

Molecular target: T1, Cul3NΔ22 (23-388, I342R, and L346D)
Test: pull-down

Row | binding result | Binder
3 | binds | B2
4 | binds | B3
5 | binds | B4
6 | binds | B5
7 | binds | B6
8 | binds | B7
9 | binds | B8
10 | binds | B9
11 | binds | B10
